Test [1] addresses ACVR2A on HEK293T-B1 cells (ACVR2B knockout stable cell line) (UniProt P27037 20-513). The experiment in a line: cell-based or functional assay.
For test [2], the target named is T1, ACVR2A mouse Fc fusion protein (mouse, UniProt P27037 20-135 (human entry), limits assumed).
T1 construct: not shown: mouse Fc
Briefly: Activin A competitive ELISA; ACVR2A mouse Fc coated, antibody titrated, competitor activin A. Here is the method:
2.3 Activin A Competitive ELISA. To select ACVR2A hits that could block the interaction between ACVR2A and its ligand Activin A, a competitive ELISA assay was set up. 30 μL 4.17 nM ACVR2A mouse Fc fusion protein was coated in 384-well HB plate at 4° C. overnight following blocking with 5% BSA. Anti-ACVR2A Fab fragment or antibodies with different concentrations were added to the plate and incubated on an orbital shaker at room temperature for 1 hours to allow binding of the antibodies. […] After 5 times washing with TBST, 30 μl of 20 nM goat anti-activin A polyclonal antibody (Abcam, ab7153) in blocking buffer was added into plate and incubated at room temperature for 1 hour. Last, 30 μl of anti-goat IgG-HRP (Beyotime, A0181) in blocking buffer (1:500 dilution) was added to plate for another 30 min incubation following washing step. Luminescence signal was collected on Tecan infinite M1000 after adding 30 μl ECL substrate.
On the technique in general: In an ELISA, binding on a coated surface is turned into a signal by an enzyme label.

The target in test [3] is T2, recombinant protein comprising the human ACVR2A extracellular domain (ECD) fused to the human IgG1 Fc region (human, UniProt P27037 20-135).
T2 construct: extracellular domain; also called ACVR2A-Fc; ACVR2A-FC; not shown: human IgG1 Fc region
Briefly: SPR, Biacore 3000 (1st test); ACVR2A-Fc captured by anti-human Fc, Fab injected. The text has this: (§1) 2.2 Surface Plasmon resonance (SPR) measurements and affinity analysis by anti-human Fc capture format. After affinity panning, output-3 (03) of CDRH1 library were screened for binding ability by Fab ELISA and followed by NGS DNA sequencing. Based on binding Elisa and sequence abundance from NGS data, 11 clones were select for SPR analysis. Approximately 100-800 resonance units (RU) of antigen ACVR2A, was captured by anti-human Fc immobilized on a channel of a CM5 chip with an activated amine group. After immobilization, Fab antibodies were injected into the channels at 25° C. in HBS-EP buffer, with a flow rate of 30 μL/min, 1 min. When the data collection was finished in each cycle, the sensor surface was regenerated using 80 mM NaOH with a flow rate of 30 μL/min, 15 sec and reused chip in next cycle. After subtraction of reference surface and buffer injection, curve was locally fitted with BIA evaluation version 4.1 using a 1:1 Langmuir binding mode.
(§2) The affinity of selected 11 anti-ACVR2A monoclonal antibody clones were determined on Biacore®3000 and Biacore®8000 as shown in Table 4 below.
Background: SPR reads the build-up and loss of mass on a sensor chip optically.

Test [4] has as its target T2, recombinant protein comprising the …. The experiment in a line: SPR, Biacore 8000 (2nd test); ACVR2A-Fc captured by anti-human Fc, Fab injected.
Excerpt: as §1, §2

Test [5] has the same target. The experiment in a line: SPR, Biacore; format and antigen construct not given.

T2 sequence (P27037 20-135): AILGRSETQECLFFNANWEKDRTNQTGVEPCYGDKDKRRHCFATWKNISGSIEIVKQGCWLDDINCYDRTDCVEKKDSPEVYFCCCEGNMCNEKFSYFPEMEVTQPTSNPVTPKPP
T1 sequence (P27037 20-135 limits assumed): as the sequence (P27037 20-135) above
ACVR2A on HEK293T-B1 cells (ACVR2B knockout stable cell line), sequence (P27037 20-513): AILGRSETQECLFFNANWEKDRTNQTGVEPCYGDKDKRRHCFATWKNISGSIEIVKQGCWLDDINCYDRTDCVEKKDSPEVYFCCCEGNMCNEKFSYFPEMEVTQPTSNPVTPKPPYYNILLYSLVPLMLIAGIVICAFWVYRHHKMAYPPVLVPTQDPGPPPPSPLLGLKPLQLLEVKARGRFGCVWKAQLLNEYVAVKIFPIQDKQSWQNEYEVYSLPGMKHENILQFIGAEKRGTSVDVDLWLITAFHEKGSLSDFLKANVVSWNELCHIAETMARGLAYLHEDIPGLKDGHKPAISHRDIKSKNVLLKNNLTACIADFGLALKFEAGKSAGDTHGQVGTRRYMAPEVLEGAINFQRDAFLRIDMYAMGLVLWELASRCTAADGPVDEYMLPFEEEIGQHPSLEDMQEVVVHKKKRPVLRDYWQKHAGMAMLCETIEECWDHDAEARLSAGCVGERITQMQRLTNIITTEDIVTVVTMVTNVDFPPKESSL

B1: hit J (IgG) (antibody, V domains shown)
VH: QVQLVQSGAEVKKPGSSVKVSCKASGPRFQDLSISWVRQAPGQGLEWMGGIIPIYGTANYAQKFQGRVTITADESTSTAYMELSSLRSEDTAVYYCVKDLTWTNLGLDIWGQGTMVTVSS
VL: EIVMTQSPSSLSASVGDTVTITCRASQGVSRWLAWYQQKPGKAPRLLIYAASSLHSGVPSRFSGSGSGTHFTLTISSLQPEDFATYFCQQSYSTPFTFGPGTKLEIK
notes: IgG: VH and VL cloned into pFUSEss-CHIg-hG1 (human IgG1 heavy) and pFUSE2ss-CLIg-hk (human kappa), made in 293F cells; also called parental clone "J"
Broadly, the IC50 is the concentration that gives 50% inhibition. Low readings indicate higher potency, high ones lower potency. As for B1, in test [1], the “IC50 (M), HEK293T-B1 CAGA-Luc, Activin A” value is 5.12e-09 M and the “IC50 (M), HEK293T-B1 CAGA-Luc, GDF8” value came out at 2.06e-09 M. The molecule also had a half-inhibitory concentration (IC50) in test [2] of 5.04 nM.

B2: clone F (Fab) (Fab, V domains shown)
VH: QVQLVQSGAEVKKPGSSVKVSCKASGREFESLFISWVRQAPGQGLEWMGGLIPIFGTANYAQKFQGRVTITADESTSTAYMELSSLRSEDTAVYYCVKDLTWTNLGLDIWGQGTMVTVSS
VL: EIVMTQSPSSLSASVGDTVTITCRASQSIGRWLAWYQQKPGKAPRLLIYAASSLHSGVPSRFSGSGSGTHFTLTISSLQPEDFATYFCQESYSNPYTFGPGTKLEIK
notes: Fab made in E. coli TG1 and purified on Ni-NTA
Usually Kd stands for the constant that tells how readily two partners part at equilibrium. Broadly, the koff is a measure of how fast the partners let go of each other. As a reminder, the kon is the rate constant with which the complex forms. As for B2, in test [3], the Kd worked out at 11.8 nM, the off-rate constant (koff) amounted to 0.000288 s⁻¹ and the association rate constant (kon) was 24400 M⁻¹ s⁻¹. In test [4], the Kd is 1.47 nM, the off-rate (koff) came to 0.000331 s⁻¹ and the on-rate constant (kon) is 225000 M⁻¹ s⁻¹.

B3: clone D (Fab) (Fab, V domains shown)
VH: QVQLVQSGAEVKKPGSSVKVSCKASGQFYHSRISWVRQAPGQGLEWMGGLIPIFGTANYAQKFQGRVTITADESTSTAYMELSSLRSEDTAVYYCVKDLTWTNLGLDIWGQGTMVTVSS
VL: EIVMTQSPSSLSASVGDTVTITCRASQSIGRWLAWYQQKPGKAPRLLIYAASSLHSGVPSRFSGSGSGTHFTLTISSLQPEDFATYFCQESYSNPYTFGPGTKLEIK
notes: as for B2
Take B3: in test [3], the equilibrium dissociation constant (Kd) came out at 12.8 nM, the off-rate (koff) was 0.00232 s⁻¹ and the on-rate (kon) is 181000 M⁻¹ s⁻¹. For the same molecule, in test [4], the Kd turned out to be 10.4 nM, the off-rate (koff) is 0.00285 s⁻¹ and the kon came out at 273000 M⁻¹ s⁻¹.

B4: clone E (Fab) (Fab, V domains shown)
VH: QVQLVQSGAEVKKPGSSVKVSCKASGFQFRTSLISWVRQAPGQGLEWMGGLIPIFGTANYAQKFQGRVTITADESTSTAYMELSSLRSEDTAVYYCVKDLTWTNLGLDIWGQGTMVTVSS
VL: EIVMTQSPSSLSASVGDTVTITCRASQSIGRWLAWYQQKPGKAPRLLIYAASSLHSGVPSRFSGSGSGTHFTLTISSLQPEDFATYFCQESYSNPYTFGPGTKLEIK
notes: as for B2
In the case of B4, in test [3], the Kd was 0.664 nM, the koff was determined as 0.00019 s⁻¹ and the kon came to 285000 M⁻¹ s⁻¹. In test [4], the Kd was 0.501 nM, the koff amounted to 0.000153 s⁻¹ and the kon worked out at 307000 M⁻¹ s⁻¹.

B5: clone H (Fab) (Fab, V domains shown)
VH: QVQLVQSGAEVKKPGSSVKVSCKASGLGFHNFQISWVRQAPGQGLEWMGGIIPIYGTANYAQKFQGRVTITADESTSTAYMELSSLRSEDTAVYYCVKDLTWTNLGLDIWGQGTMVTVSS
VL: EIVMTQSPSSLSASVGDTVTITCRASQGVSRWLAWYQQKPGKAPRLLIYAASSLHSGVPSRFSGSGSGTHFTLTISSLQPEDFATYFCQQSYSTPFTFGPGTKLEIK
notes: as for B2
For the molecule B5, in test [3], the Kd turned out to be 2.25 nM, the koff turned out to be 0.000698 s⁻¹ and the association rate constant (kon) came out at 311000 M⁻¹ s⁻¹. In test [4], the Kd worked out at 1.38 nM, the off-rate constant (koff) amounted to 0.000901 s⁻¹ and the kon was 651000 M⁻¹ s⁻¹.

B6: IgG 3352 (CDR shuffling) (antibody, V domains shown)
VH: QVQLVQSGAEVKKPGSSVKVSCKASGFQFRTSLISWVRQAPGQGLEWMGGLIPIFGTANYAQKFQGRVTITADESTSTAYMELSSLRSEDTAVYYCVKDLTWTNLGLDIWGQGTMVTVSS
VL: EIVMTQSPSSLSASVGDTVTITCRASQGPSRWLAWYQQKPGKAPRLLIYAAQGLSSGVPSRFSGSGSGTHFTLTISSLQPEDFATYFCQQSYSTPFTFGPGTKLEIK
notes: IgG: human IgG1 / kappa from pFUSE vectors, made in 293F cells
As to B6, in test [1], the “IC50 (M), HEK293T-B1 CAGA-Luc, Activin A” value amounted to 2.28e-09 M and the “IC50 (M), HEK293T-B1 CAGA-Luc, GDF8” value turned out to be 3.51e-10 M. In test [5], the Kd was determined as 0.584 nM, the koff was 9.41e-05 s⁻¹ and the association rate constant (kon) came out at 161000 M⁻¹ s⁻¹. The molecule also yielded an IC50 in test [2] of 2.07 nM.

B7: clone G (Fab) (Fab, V domains shown)
VH: QVQLVQSGAEVKKPGSSVKVSCKASGRHFGSLQISWVRQAPGQGLEWMGGIIPIYGTANYAQKFQGRVTITADESTSTAYMELSSLRSEDTAVYYCVKDLTWTNLGLDIWGQGTMVTVSS
VL: EIVMTQSPSSLSASVGDTVTITCRASQGVSRWLAWYQQKPGKAPRLLIYAASSLHSGVPSRFSGSGSGTHFTLTISSLQPEDFATYFCQQSYSTPFTFGPGTKLEIK
notes: as for B2
On to B7, for which, in test [3], the dissociation constant Kd was determined as 0.612 nM, the koff was determined as 0.000152 s⁻¹ and the kon was determined as 248000 M⁻¹ s⁻¹. In test [4], the Kd is 0.443 nM, the koff stood at 0.000282 s⁻¹ and the kon is 637000 M⁻¹ s⁻¹.

B8: clone I (Fab) (Fab, V domains shown)
VH: QVQLVQSGAEVKKPGSSVKVSCKASGESFEHFQISWVRQAPGQGLEWMGGIIPIYGTANYAQKFQGRVTITADESTSTAYMELSSLRSEDTAVYYCVKDLTWTNLGLDIWGQGTMVTVSS
VL: EIVMTQSPSSLSASVGDTVTITCRASQGVSRWLAWYQQKPGKAPRLLIYAASSLHSGVPSRFSGSGSGTHFTLTISSLQPEDFATYFCQQSYSTPFTFGPGTKLEIK
notes: as for B2
Turning to B8, in test [3], the Kd is 1.84 nM, the koff was found to be 0.000468 s⁻¹ and the association rate constant (kon) is 254000 M⁻¹ s⁻¹. In test [4], the equilibrium dissociation constant (Kd) was 1.01 nM, the koff came to 0.000379 s⁻¹ and the on-rate (kon) was 374000 M⁻¹ s⁻¹.

B9: IgG 6401 (CDR shuffling) (antibody, V domains shown)
VH: QVQLVQSGAEVKKPGSSVKVSCKASGPRFQDLSISWVRQAPGQGLEWMGGIIPIYGTANYAQKFQGRVTITADESTSTAYMELSSLRSEDTAVYYCVKDLTWTNLGLDIWGQGTMVTVSS
VL: EIVMTQSPSSLSASVGDTVTITCRASQGPSRWLAWYQQKPGKAPRLLIYSARALHSGVPSRFSGSGSGTHFTLTISSLQPEDFATYFCQQSYSTPFTFGPGTKLEIK
notes: as for B6
Turning to B9, in test [1], the “IC50 (M), HEK293T-B1 CAGA-Luc, Activin A” value was determined as 1.93e-09 M and the “IC50 (M), HEK293T-B1 CAGA-Luc, GDF8” value stood at 2.16e-09 M. For the same molecule, in test [5], the Kd came out at 0.865 nM, the off-rate (koff) was determined as 0.000135 s⁻¹ and the kon was 156000 M⁻¹ s⁻¹. In test [2], this molecule displayed an IC50 of 1.95 nM.

B10: clone C (Fab) (Fab, V domains shown)
VH: QVQLVQSGAEVKKPGSSVKVSCKASGREFESLFISWVRQAPGQGLEWMGGIIPIYGTANYAQKFQGRVTITADESTSTAYMELSSLRSEDTAVYYCVKDLTWTNLGLDIWGQGTMVTVSS
VL: EIVMTQSPSSLSASVGDTVTITCRASQGVSRWLAWYQQKPGKAPRLLIYAASSLHSGVPSRFSGSGSGTHFTLTISSLQPEDFATYFCQQSYSTPFTFGPGTKLEIK
notes: as for B2
As to B10, in test [3], the Kd amounted to 1.14 nM, the koff is 4.16e-05 s⁻¹ and the kon came out at 36500 M⁻¹ s⁻¹. In addition, in test [4], the Kd came to 3.08 nM, the off-rate (koff) came out at 0.000247 s⁻¹ and the association rate constant (kon) worked out at 90300 M⁻¹ s⁻¹.

B11: clone K (Fab) (Fab, V domains shown)
VH: QVQLVQSGAEVKKPGSSVKVSCKASGMPFQQSQISWVRQAPGQGLEWMGGIIPIYGTANYAQKFQGRVTITADESTSTAYMELSSLRSEDTAVYYCVKDLTWTNLGLDIWGQGTMVTVSS
VL: EIVMTQSPSSLSASVGDTVTITCRASQGVSRWLAWYQQKPGKAPRLLIYAASSLHSGVPSRFSGSGSGTHFTLTISSLQPEDFATYFCQQSYSTPFTFGPGTKLEIK
notes: as for B2
As to B11, in test [3], the Kd worked out at 0.489 nM, the koff stood at 0.000256 s⁻¹ and the kon came out at 523000 M⁻¹ s⁻¹. Further, in test [4], the Kd worked out at 0.212 nM, the koff was 0.000259 s⁻¹ and the on-rate constant (kon) stood at 1.22e+06 M⁻¹ s⁻¹.

B12: clone B (Fab) (Fab, V domains shown)
VH: QVQLVQSGAEVKKPGSSVKVSCKASGFQFRTSLISWVRQAPGQGLEWMGGIIPIYGTANYAQKFQGRVTITADESTSTAYMELSSLRSEDTAVYYCVKDLTWTNLGLDIWGQGTMVTVSS
VL: EIVMTQSPSSLSASVGDTVTITCRASQGVSRWLAWYQQKPGKAPRLLIYAASSLHSGVPSRFSGSGSGTHFTLTISSLQPEDFATYFCQQSYSTPFTFGPGTKLEIK
notes: as for B2
As to B12, in test [3], the Kd was determined as 6.81 nM, the koff worked out at 0.0022 s⁻¹ and the kon was 323000 M⁻¹ s⁻¹. In test [4], the dissociation constant (Kd) worked out at 5.91 nM, the dissociation rate constant (koff) worked out at 0.00253 s⁻¹ and the kon worked out at 428000 M⁻¹ s⁻¹.

These data come from patent US20240368289A1 (LAEKNA THERAPEUTICS SHANGHAI, published 2024).
